One series has as its target thrombin (UniProt P00734;P00734 328-363;364-622). As to the kind of experiment: electrochemical impedance spectroscopy; linear response 7.5-75 pM, detection limit 4.5 pM; PEG-blocked electrode, [Fe(CN)6]3-/4- probe; complex broken by 2.0 M NaCl at 42 C; PBS (187 mM NaCl, 2.7 mM KCl, 8.1 mM Na2HPO4, 1.76 mM KH2PO4, pH 7.0), room temperature; aptamer 1 uM adsorbed on graphite-epoxy electrode, PEG blocking.

In another series the target is serum albumin (UniProt P02768 25-609). As to the kind of experiment: electrochemical impedance spectroscopy; albumin 5,000 mg/dL; Rct did not increase (slight decrease); PBS (187 mM NaCl, 2.7 mM KCl, 8.1 mM Na2HPO4, 1.76 mM KH2PO4, pH 7.0), room temperature; aptamer 1 uM adsorbed on graphite-epoxy electrode, PEG blocking. The conditions noted are these: G-quadruplex (quadriplex).
serum albumin, sequence (P02768 25-609): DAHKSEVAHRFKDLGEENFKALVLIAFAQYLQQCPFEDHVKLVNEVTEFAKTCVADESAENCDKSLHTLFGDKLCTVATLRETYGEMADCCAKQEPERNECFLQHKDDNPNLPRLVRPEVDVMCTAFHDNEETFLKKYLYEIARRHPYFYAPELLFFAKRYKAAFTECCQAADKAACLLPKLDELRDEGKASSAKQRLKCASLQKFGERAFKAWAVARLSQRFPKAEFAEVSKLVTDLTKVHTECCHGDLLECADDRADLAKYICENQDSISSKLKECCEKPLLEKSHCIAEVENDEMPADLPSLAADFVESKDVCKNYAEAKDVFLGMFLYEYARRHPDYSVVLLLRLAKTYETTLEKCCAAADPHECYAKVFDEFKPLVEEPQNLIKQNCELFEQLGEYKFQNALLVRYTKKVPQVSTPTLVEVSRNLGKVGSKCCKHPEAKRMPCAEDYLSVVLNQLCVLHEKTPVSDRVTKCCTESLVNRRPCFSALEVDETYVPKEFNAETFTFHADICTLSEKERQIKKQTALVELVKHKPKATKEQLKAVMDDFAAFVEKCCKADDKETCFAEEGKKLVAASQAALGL

As for GGTTGGTGTGGTTGG (structured_DNA) [AptThr], the binding result was “binds” with thrombin and “no binding” with serum albumin.

For the origin of these results see publication PMC3376577, “A Reusable Impedimetric Aptasensor for Detection of Thrombin Employing a Graphite-Epoxy Composite Electrode”.
